Columns and labels:
CD38 (human) [1] = target: CD38 (human) (UniProt P28907); assay: flow cytometry on KMS-18 cells
CD38 (human) [2] = target: CD38 (human) (UniProt P28907); assay: flow cytometry on KMS-12 cells

For Anti-CD38 HIT2 mAb (antibody), the MFI (CD38 (human) [1]) was 44.5 MFI and the MFI (CD38 (human) [2]) was 62.4 MFI.
